Results published in the DeepSol protein solubility set.

Test: soluble on expression in E. coli; label from the status in PepcDB or PDB records

| Sequence | soluble on expression in E. coli |
| --- | --- |
| MVKKSEFERGDIVLVGFDPASGHEQQGAGRPALVLSVQAFNQLGMTLVAPITQGGNFARYAGFSVPLHCEEGDVHGVVLVNQVRMMDLHARLAKRIGLAADEVVEEALLRLQAVVE | soluble |
| MYQVITMYGDNEPWWFFDDWQEDIVQEKTFDNLTDAETYYVEVWQKLSQNYTYVNTKPNYLTAFWNDGEERWCEECDEDLQQYFGLALLENHHAVTFENKAEFTTISNHFGKTKFCKRKVI | not soluble |
| MSKSEKQQLAPWVEKYRPKVLADIVGNENIVERLKVIGHEGNVPNIVLSGPPGCGKTTSVWALARELLGDKVKEAVLELNASDERGIDVVRHRIKTFAQTKVTLPEGRHKIIILDEADSMTDGAQQALRRTMEMYTKTTRFALACNQSEKIIEPIQSRCALLRYTKLSPVQLLTRVKEVAKAEKVNYDDGGLEAILFTAQGDMRQALNNLQATVNAYELVNKENVLKVCDEPHPDLMIKMLHYCTDRKFFEASKIIHEFHRLGFSSDDIVSTLFRVVKTVELSKNVSEQLRMEYIRQIAMCHMRIVQGLTSKLQLSRLIADLCRVSAAATATSA | not soluble |
| PETKTGKKILLAAPRGYCAGVDRAVETVERALEEYGAPIYVRKEIVHNRYVVDTLAEKGAIFVNEASEAPEGANMVFSAHGVSPMVHEEAAAKNIKAIDAACPLVTKVHKEVQRFDKQGFHILFIGHEGHEEVEGTMGHSVEKTHLVDGVAGIATLPEFLNDEPNLIWLSQTTLSVDETMEIVRELKVKFPQLQDPPSDDICYATQNRQVAVKAIAERCELMIVVGSRNSSNSVRLVEVAKQNGADNAYLVDYAREIDPAWFEGVETIGISSGASVPEILVQGVIERLAEFGYD | not soluble |
| MGSDKIHHHHHHGCSDVNQLLGNEESVDYKSTRRGDPLSIPPDLTQANNDPRYKAPASGTATYSQFQQQGLQQQASAGQNTNVLPERADMRVERDGDLRWLVIERPPEQLFPKVVDFWTDTGFTVSVNNPQAGIIETDWAENRAKIPESWLRQVLGSVLETAWDSGEREKFRTRVERVNGHTEIYITHNQMLEKRVGSDGGQVQWTHGKEDPGLNAAMLARLMVYLGTDVDAARKLVAQAEAAPQAPKVQSVRAEGAMLVVDESFDRAWRRVGVALDSGGFAVDDRDRSAGEYFVRYVDTDTGAQNEQPGFFSRLFSSDKKAQAPQYRIRLTGSGTQTQVTVLDANGQRDSSATAQRMLSVLKDKMV | not soluble |
| MRDIVFIERDPYAPIRHCYTVSKILYQGKSPYQEIQVIESPEFGRMLILDGVVQLDEKYEFLYHEYLAHVPLHAHPNPRNVLIIGGGDGGTLREVLKHDIVERAVLVDIDKEVIEVSKKYLPTLSVGFQDPRAIVVNEDGYKYVQDYENEFDVIIVDSTDPVGFAHVLTTEDFFRHVYKALKEDGIFVAQTESIHYHLEMVSNIQQRLKKVFPIVDLYTSVIPIYAGYWWTFSIASKKYPVRTPAREVKVQTKIYDADMHEYAFLPESFYNKIVNGEYKYLEHHHHHH | not soluble |
| MQQRMGAMPMAVLYPQSYLPHSAVPCPAPGYGNMFSGYGAAPVMMMVAGNAPYPVNAHFGHSATPMYFAMDPANSAAPMAVVADAASVCATPKAKLAHSGSGNSLSTQSCCSGGETPSLLSRSAASSTVKQRPHHDVNVWGFALVDQLHPSLQRIPVPLSCLHEPTMGISLYDNNVMSSSTRPCKSSVCLLHAQGLGCAEGSRCRCFHVSSAYLMQCRATSESLCCALHNCYYSQEMLGANCAPHVSGRCYALSLDDASKFPQDGEKPYLINLSLLNLSLTVGLETLPCVNSVYVVSWKKHVCRLSMDGLCKWTKDCGHIHVCRQLTRFLQDAETLSIVKTLQERTRPKSSAELYRDIILSENTLRYVRSVAALSLVAALLEAGDVEALKTLARAKCALLPSQSEALQKLGIALSGSDSTRSVTVSPKLLALLTPKGTN | not soluble |
| MSLTRDEIAKYYEAHKGQFVSGRKVRLGLVIFPPRDDADALAAQVKSGAMTFADLAARHSIGPNPQNGGVIGDLLWSDLSMEWRDTLSELKPGDVSRVFLVEGRKAVLQLVASNEGKGQALDDVAEEIENILREPKMQERLQEYIGQLRSRAVIDIREGHHHHHH | soluble |
| MKIGFIGTGSMGTILIESFLESSALTAEQIVITNRTQEKADALARRYPGLSVVDRPEEVVQQTDCFFVCVKPMQFHRVLMDIRPHCSANKLLVSITSPISIAQLENSVDCKVARAIPSILNRACAGSTLVSFSERCLEEDRSFLCGLLGTISEPLLIEEKITRVSSDIVSCGPAFFSYLTQRFIEAAVRQTAISEEDATALATEMLIGIGKLLDQELYTLPSLQKRVCVPGGITGEGIRVLEEDVGHMFDRLFQKTHQKYYHEQEKISSQLTLKGMAGDPNSLEHHHHHH | not soluble |
| MKAITLLSSGLDSVAALAIAAESLEIEMAITFDYGQRAGQREMEYSEKVCEHFGIEQRIIKLDWLGEITHTSLVNRDEEVPSLSFEDIDENSPSMITEYSAKAVWVPNRNGVMLNIAGSFAESRGCDYIVVGFNGEEAGTFPDNSRDYIQAVDNAFSYSTQNGVKVLAPLAEMGKTEIVKKALEAEAPLEYSWSCYHGGEIPCGKCESCVRRARAFKNIGIKDPLLERLGI | not soluble |
| RYRGSKWAGKKSIPAFIDNDYNEADQVIENLQRNELTPREIADFIGRELAKGKKKGDIAKEIGKSPAFITQHVTLLDLPEKIADAFNTGRVRDVTVVNELVTAFKKRPEEVEAWLDDDTQEITRGTVKLLREFLDEKGRDPNTVDAFNGQTDAERDAEAGDGQDGEDGDQDGKDAKEK | soluble |
| MGSDKIHHHHHHMQMAVRWQLSGSYFENCSCDVVCPCLLSTKAQLTSRPTKGVCDVGLVFHIDTGNYGDVRLDGLSVALVAHTPGPMADGNWTAAAYIDERADDRQTEALGAIFTGAAGGPMAVLAPMIGTNLGAKKVPIDYRIDGKKRSAAIAGVMQMAVEPLPTMREDGQMWAATGHPVNPDWLGMAMGAQGSTFSDHGMSWDNSGQNGHYAPINWSGE | not soluble |
| MSLSAPASEIAALILRGFDDYREQFREITDGARARFEQAQWQEAQRASAQRINLYEEKVAETVAGLRAGLADSELLDVERWPIIKSAYIAQIDLRLDDELAETWFNSIFCGLFSHDNISDGTMFVHTTRPSLRAHARAPYTRTYRPGGDLRQALEKIFDDYRFDVPYDDRERDLERIDALLHSNLPDWVCKDPDLAIELIGSVFYRNKGAYLVGRLFTPDEQWPLVFPLLHREDHGIQFDTVITDEAEVSIIFSFTRSYFMVDVPVPAELVAFLKRLLPGKHLAELYTSIGFYKQGKSEFYRALINHLATTDDRFVMAPGVRGMVMSVFTLPGFNTVFKIIKDRFNPSKSVDHATVIQKYQLVKNHDRVGRLADTQQFADFRFPVSKFEPECLAELLEVAPSTVVMEGDVVLIRHCWTERRMTPLNIYLENASEAQTREALNDYGLAIKQLAAANIFPGDMLLKNFGVTRHGRVVFYDYDEICYLTEVNFRYIPEPRFPEDEMSSEPWYSVGPNDVFPEEFPRFLFVDLNQRRLFAKLHGNLYDAKYWQGLQEQIREGKVIDVFPYRRQETPEQLLEGHHHHHH | soluble |
| MGNYKFRISEMLPNAWFHKLKDVTKHSKPKNKASSSSSNTCSKKKPSSDSLPQHSYFSNSLVANNPPHHNSPRNSLHTKKMSKRKTLYKPSLKPLTPPPLLVSASFNKSKINDQDSSYSLFPAIETSPESFVYSFYEEDDDDEFVEFSNFKINTKNKAFTKQKVKVIDSVEKACTASKPIKKPQKSHLSVKISRDEDDNEYKAEKKYQRQVSSGRKPSAGINLKRVNSPRIQLSGTRRSTSRRSESKQDVLESFAVMKRSVDPKKDFRESMIEMIEENNIRASKDLEDLLACYLTLNPKEYHDLIIHVFEQIWLQLTKTK | soluble |
| GAMAVKVARPCRKIEKWTYLELKGSKANEGVPQAMTAFAEFLNRTGIPINPRFSPGMSMSVPGSEKEFFAKVKELMSSHQFVVVLLPRKDVAIYNMVKRAADITFGVHTVCCVAEKFLSTKGQLGYFANVGLKVNLKFGGTNHNI | soluble |
| MDDLPYLARGVMPVETPSSVLVSSSKYLNNPRLREWLAMILLRKNGPDFPPPAEMYEFLPILEELRDHDRIEAMFAEERRVNPELDAWLSEGFYSTYAIEDFRQFAPGTLGGIFYQWITEGNYEIQITPWREPKSQLEFYNLRSGQTHDFEHILCGGGFNFMGELVPYWYRLTNVFKHIRNQELAAELSMIQIFGSLRYTVRTMLHYPQIWMTCVDAIQRGMKVGQESDALFMKKLEPHFHLPLEEARAALGVRGAVDVDTEIEGAFWAGRAPLSALTERIAAELEHHHHHH | soluble |
| MSLGFVPVRGLHHFAYRCRDAEETRQFYEGILGLPLVHVVRAEEVPSTGEYCPYMHLFFEMKDGSCVAFFDLDDDTVPLPSSNTPVWAQHLALRVDSVAAVEEAKRKLEQAGVKVLGPVDHDGFVCSIYFFDPNGVRLELTTDTADSTEMARYRREARPGCDAWTLEKSLRRATGQGSVLREGHHHHHH | not soluble |
| MNGAIFPWREDSRFQLLIDGPAFFPRMIAAIDRAEQQVDLELYLVEAGACADAVVRALVEAGRRGVIVRCLFDDFGSKAFDAGLRKQLTDAGVILRFYNPIHWRRGVRNFYRDHRKILVVDKALAVVGGTGVTDEFWEPDKDVSQWHEVMVEIAGPLVLDWQALFDRQFHANARRFAWRPKQNFGLDHLPKAPVTGEGLGRVAYADSRQHRDILQSLVRTLHSGQKRIWLATPYFLPTWKVRRALRSAAARGVDVRLLLTGPRTDHPSVRYAGHRYYPRLLRAGVKVFEYQPCFLHLKMVLIDDWVSIGSCNFDHWNLHFNLEANLEAHDPGLTRDVAASFEKDFALSTEITLEDWKARPLWRRVKQRLWGWIDRLVVNLLDQRN | not soluble |
| MAATSGTDEPVSGELVSVAHALSLPAESYGNDPDIEMAWAMRAMQHAEVYYKLISSVDPQFLKLTKVDDQIYSEFRKNFETLRIDVLDPEELKSESAKEKWRPFCLKFNGIVEDFNYGTLLRLDCSQGYTEENTIFAPRIQFFAIEIARNREGYNKAVYISVQDKEGEKGVNNGGEKRADSGEEENTKNGGEKGADSGEEKEEGINREDKTDKGGEKGKEADKEINKSGEKAM | soluble |
| MRGLLVATWIFVSVAASATPTTTTKSPPPTTTTLSPQILKAKLPPVVKNATWECGTDEFTKSISEGEIQAKCPKLRDHINSCCLQHDGCYEAQSGQKFCDDTFCSCLERRSRSSKSCHDESAPLFCDLVRTFGDGAYEASGPNASTTEESPAEKDDYDYESHVAGLNATPSSST | not soluble |
| MLSVEKFRVGERVVWIGVIFSGRVQGIAFAFDRGTLMKRIHDLAEHLGKRGVSISLDVQPSDYPEKVFKVLIGELDNASFLRELSFEGVTPFEKKVYEWLTKNVKRGSVITYGDLAKALNTSPRAVGGAMKRNPYPIVVPCHRVVAHDGIGYYSSGIEEKKFLLEIEGVKEWTS | soluble |
| MGKPTGFMEIKREKPAERDPLTRLKDWKEYSAPFSEEASKRQGARCMDCGTPFCQIGADINGFTSGCPIYNLIPEWNDLVYRGRWKEALERLLKTNNFPEFTGRVCPAPCEGSCTLAISDPAVSIKNIERTIIDKGFENGWIQPRIPKKRTGKKVAIVGSGPAGLASADQLNQAGHSVTVFERADRAGGLLTYGIPNMKLEKGIVERRIKLLTQEGIDFVTNTEIGVDITADELKEQFDAVILCTGAQKQRDLLIEGRDSKGVHYAMDYLTLATKSYLDSNFKDKQFIDAKGKDVIVIGGGDTGADCVATALRQKAKSVHQFGKHPKLPPARTNDNMWPEQPHVFTLEYAYEEREAKFGRDPREYSIQTTKMVADKNGKLKELHTIQMEKVKNEHGKYEFRELPGTEKVWPAQLVFIAIGFEGTEQPLLKQFGVNSVNNKISAAYGDYQTNIDGVFAAGDARRGQSLIVWAINEGREVAREVDRYLMGSSVLPLEHHHHHH | soluble |
| VPGTLLPRLPSEPGMTLLTIRIEKIGLKDAGQCIDPYITVSVKDLNGIDLTPVQDTPVASRKEDTYVHFNVDIELQKHVEKLTKGAAIFFEFKHYKPKKRFTSTKCFAFMEMDEIKPGPIVIELYKKPTDFKRKKLQLLTKKPLYLHLHQSLHKE | soluble |
